The record followed here is PMC4460818, “Regulation of NDR1 activity by PLK1 ensures proper spindle orientation in mitosis” (Scientific Reports, 2015).

Sequences and labels used below:
B1: GST-Mob1A (natural protein, human (cDNA from HeLa), UniProt Q9H8S9 1-216, looked up)
chain: MSFLFSSRSSKTFKPKKNIPEGSHQYELLKHAEATLGSGNLRQAVMLPEGEDLNEWIAVNTVDFFNQINMLYGTITEFCTEASCPVMSAGPRYEYHWADGTNIKKPIKCSAPKYIDYLMTWVQDQLDDETLFPSKIGVPFPKNFMSVAKTILKRLFRVYAHIYHQHFDSVMQLQEEAHLNTSFKHFIFFVQEFNLIDRRELAPLQELIEKLGSKDR
notes: Mob1A; cDNA isolated by PCR from a HeLa cDNA library, cloned into pGEX-6P-1; Vector pGEX-6P-1, BamHI and SalI; also called recombinant Mob1A; source: E. coli, purified by glutathione-agarose beads

One assay concerns the target T1, MBP-NDR1 wild type (human, UniProt Q15208 1-465).
T1 construct: NDR1 kinase, human, full length; cDNA isolated by PCR from a HeLa cDNA library; Vector pMAL-C2x; also called MBP-tagged NDR1; NDR1^WT; source: E. coli, purified by amylose beads, eluted by 10 mM maltose (told for MBP and the MBP-NDR1 mutants)
In words: pull-down; GST or GST-fusion protein on agarose beads incubated with purified dissolved MBP-tagged proteins in PBS, 0.1% Triton X-100, 0.5 mM DTT, 4 °C, 3-8 hours; SDS-PAGE, CBB stain; bands quantified by ImageJ for the Mob1A pull-down. As to conditions: both partners purified.

The assay “GST-Mob1A” deals with B1. The assay is described as above. As to conditions: both partners purified.

T1 sequence (Q15208 whole entry): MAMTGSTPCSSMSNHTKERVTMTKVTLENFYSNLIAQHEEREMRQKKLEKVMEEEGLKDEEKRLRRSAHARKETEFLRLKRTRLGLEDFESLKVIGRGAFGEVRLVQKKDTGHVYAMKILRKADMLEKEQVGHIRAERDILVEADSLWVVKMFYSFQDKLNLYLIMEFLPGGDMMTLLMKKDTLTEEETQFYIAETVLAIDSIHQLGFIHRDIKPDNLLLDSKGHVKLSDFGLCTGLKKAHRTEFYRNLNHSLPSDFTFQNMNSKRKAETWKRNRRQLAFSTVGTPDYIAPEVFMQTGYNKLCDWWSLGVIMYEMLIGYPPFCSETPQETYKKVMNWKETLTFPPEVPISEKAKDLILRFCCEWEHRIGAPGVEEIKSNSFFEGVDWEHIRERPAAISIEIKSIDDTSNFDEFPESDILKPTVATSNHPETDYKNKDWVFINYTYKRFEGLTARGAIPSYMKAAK

As to B1, the binding result with MBP-NDR1 wild type was “binds”.

B2: MBP-NDR1^3E (enzyme)
chain: not shown
notes: NDR1 kinase, human, full length, phospho-mimicking mutant of the PLK1 sites Thr7, Thr183 and Thr407 (3E); glutamate is read from that name; Mutants were made on the siRNA-resistant NDR1 plasmid; also called phosphomimetic mutant NDR1^3E; source: E. coli, purified dissolved MBP-tagged protein
With B2, in the assay with GST-Mob1A, the “percent bound relative to NDR1^WT” value is less than 30%.

B3: MBP-NDR1^3A (enzyme)
chain: not shown
notes: NDR1 kinase, human, full length, Thr7, Thr183 and Thr407 mutated to alanines; Mutants were made on the siRNA-resistant (silent changes) NDR1 plasmid; source: E. coli, purified dissolved MBP-tagged protein
As to B3, the “percent retained relative to NDR1^WT” value with GST-Mob1A is greater than 90%.
